Earlier results, collected in patent publication US20050107320A1, “Methods and compositions for use in interventional pharmacogenomics” (priority 2003, published 2005).

Legend:
[1] = administered systemically

Which clinical tolerability does the source give for “EPO: glycoprotein hormone involved in the growth and maturation of erythroid progenitor cells into erythrocytes” here?
The clinical tolerability was “well tolerated clinically”.

And the “crossing of the blood-brain barrier” value [1]?
The value was “can cross the blood-brain barrier”.
